Experimental data reported in patent US20250277026A1.
One block for each binder: values may come before it.

Tests used:
[1] = biological target: human Claudin-6 (human) (UniProt P56747); assay: cell-based or functional assay
[2] = biological target: human Claudin-6 (human) (UniProt P56747); assay: FACS, Claudin-6-CHO-K1 cells
[3] = biological target: human Claudin-6 (human) (UniProt P56747); assay: FACS, NEC8 cells (endogenous CLDN6)
[4] = biological target: human Claudin-6 (human) (UniProt P56747); assay: FACS, OV90 cells (endogenous CLDN6)
[5] = biological target: human Claudin-9 (human) (UniProt O95484); assay: FACS, Claudin-9-HEK293 cells, 5 µg/ml
[6] = biological target: human Claudin-6 (human) (UniProt P56747); assay: FACS dose response, Claudin-6-CHO cells
[7] = biological target: human Claudin-6 (human) (UniProt P56747); assay: FACS dose response, Claudin-6-HEK293 cells
[8] = biological target: human Claudin-9 (human) (UniProt O95484); assay: FACS dose response, Claudin-9-HEK293 cells
[9] = biological target: human Claudin-3 (human) (UniProt O15551); assay: FACS on Claudin-3-CHO-K1 cells, MFI relative to the isotype control
[10] = biological target: human Claudin-4 (human) (UniProt O14493); assay: FACS on Claudin-4-CHO-K1 cells, MFI relative to the isotype control
[11] = biological target: human Claudin-3 (human) (UniProt O15551); assay: FACS on MCF7 cells, which endogenously express Claudin-3 and Claudin-4; MFI relative to the isotype control
[12] = biological target: human Claudin-4 (human) (UniProt O14493); assay: as above
[13] = biological target: human Claudin-4 (human) (UniProt O14493); assay: FACS, Claudin-4-CHO-K1 cells

human Claudin-6 (human), sequence (P56747 whole entry): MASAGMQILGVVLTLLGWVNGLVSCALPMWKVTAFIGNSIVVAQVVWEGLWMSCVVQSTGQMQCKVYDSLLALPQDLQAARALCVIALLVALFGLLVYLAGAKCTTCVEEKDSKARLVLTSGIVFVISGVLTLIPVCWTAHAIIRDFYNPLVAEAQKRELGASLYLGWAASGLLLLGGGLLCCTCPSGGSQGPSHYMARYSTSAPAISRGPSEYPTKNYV
human Claudin-3 (human), sequence (O15551 whole entry): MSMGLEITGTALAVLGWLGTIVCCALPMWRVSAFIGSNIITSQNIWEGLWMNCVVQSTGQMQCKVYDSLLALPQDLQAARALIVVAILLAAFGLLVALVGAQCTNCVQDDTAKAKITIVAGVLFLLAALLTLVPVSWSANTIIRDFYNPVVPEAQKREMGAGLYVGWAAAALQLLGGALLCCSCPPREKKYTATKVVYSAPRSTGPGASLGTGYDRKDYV
human Claudin-9 (human), sequence (O95484 whole entry): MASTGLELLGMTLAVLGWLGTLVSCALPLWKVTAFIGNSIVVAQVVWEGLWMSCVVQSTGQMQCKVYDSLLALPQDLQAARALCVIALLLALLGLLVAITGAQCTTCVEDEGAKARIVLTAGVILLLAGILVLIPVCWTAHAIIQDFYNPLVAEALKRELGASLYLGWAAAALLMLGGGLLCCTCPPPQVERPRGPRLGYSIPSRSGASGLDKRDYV

- fold MFI over isotype control [2]: 25 fold
- fold MFI over isotype control [3]: 19 fold
- fold MFI over isotype control [4]: 20 fold
- fold MFI over isotype control [5]: 15 fold
- EC50 [6]: 1.52 nM
- EC50 [7]: 1.51 nM
- EC50 [8]: 16.4 nM
- fold MFI over isotype control [9]: 1.1 x
- fold MFI over isotype control [10]: 1.2 x
- fold MFI over isotype control [11]: 0.7 x
- fold MFI over isotype control [12]: 0.7 x
B1: NR.N6.PC1 (antibody, from another filing, V domains shown)
VH: EVQLQQSGPELVKPGASMKISCKASGYSFTGYTMNWVKQSHGKNLEWIGLINPYNGGTIYNQKFKGKATLTVDKSSSTAYMELLSLTSEDSAVYYCARDYGFVLDYWGQGTTLTVSS
VL: QIVLTQSPSIMSVSPGEKVTITCSASSSVSYMHWFQQKPGTSPKLCIYSTSNLASGVPARFSGRGSGTSYSLTISRVAAEDAATYYCQQRSNYPPWTFGGGTKLEIK
- endocytosis-mediated cytotoxicity (anti-hFc Fab-MMAF, CellTiter-Glo) on NEC8 cells, EC50 mean (St. Dev. 0.03) [1]: 0.05 nM
- endocytosis-mediated cytotoxicity on OV90 cells, EC50 [1]: 1.96 nM

- fold MFI over isotype control [13]: 4.5 fold
- fold MFI over isotype control [2]: 25 fold
- fold MFI over isotype control [3]: 20 fold
- fold MFI over isotype control [4]: 15 fold
- fold MFI over isotype control [5]: 32 fold
- EC50 [6]: 24.5 nM
- EC50 [7]: 8.73 nM
- EC50 [8]: 7.57 nM
- fold MFI over isotype control [9]: 1.6 x
- fold MFI over isotype control [11]: 1 x
- fold MFI over isotype control [12]: 1 x
B2: NR.N6.PC2 (antibody, from another filing, V domains shown)
VH: QVQLVQSGAEVKKPGASVKVSCKASGYTFTSYWMNWVRQAPGQRLEWMGMIHPSDSEIRLNQKFKDRVTITRDTSASTAYMELSSLRSEDTAVYYCARIDSYYGYLFYFDYWGQGTTVTVSS
VL: DIVMTQSPDSLAVSLGERATINCRASQTVSTSSYSYMHWYQQKPGQPPKLLIYFASNVESGVPDRFSGSGSGTDFTLTISSLQAEDVAVYYCQHSWEIPWTFGQGTKLEIKR
- endocytosis-mediated cytotoxicity (anti-hFc Fab-MMAF, CellTiter-Glo) on NEC8 cells, EC50 mean (St. Dev. 0.04) [1]: 0.14 nM
- endocytosis-mediated cytotoxicity on OV90 cells, EC50 [1]: 1.71 nM
